Source: the supplement of paper PMC10724198
± gives the standard deviation of the averaged measurements.

Test system: Saccharomyces cerevisiae
Experiment: protein stability index of tFT-peptide fusion (C-terminal peptide) (PSI (0-1 scale)); higher = more stable (slower turnover)
Conditions: genetic background: wild type; temperature: 30 C
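Further: PSI is a weighted mean of sequencing reads over stability bins, variants kept only with over 10 reads, mCherry proximal and sfGFP distal, peptide attached via GGGS linker.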

Point of comparison: QVTLPHSSLLGW, protein stability index 0.6749 ± 0.0028. Against it:
- QTDHINKTTAKI — within error, 0.684 ± 0.021
- QTGQVSRVSPHD — within error, 0.672 ± 0.031
- QTHRFLHVGKSL — lower, 0.621 ± 0.043
- QTLNTKEKREKE — higher, 0.727 ± 0.025
- QTYNKRKGAIRA — lower, 0.616 ± 0.016
- QVLFTPLLNVTK — higher, 0.754 ± 0.05
- QVWLEKDPQETA — within error, 0.691 ± 0.016
- QYFRKRVLKELP — within error, 0.671 ± 0.074
- QYGVSIRRDSRP — within error, 0.642 ± 0.035
- RADAPPPTRPEA — higher, 0.744 ± 0.011
- RAGSLRFRVILY — lower, 0.635 ± 0.026
- RAHWGEFGYSLF — higher, 0.716 ± 0.018
- RAILTVVRGHLE — within error, 0.668 ± 0.0086
- RAITPRHKRLVG — higher, 0.6934 ± 0.0031
- RAKCELVHGLRT — within error, 0.65 ± 0.026
- RAKGGFDPKCYS — within error, 0.749 ± 0.076
- RAKSTFRVHSHM — lower, 0.6645 ± 0.005
- RAKVEQTGQKTV — higher, 0.707 ± 0.011
- RALLSPFYRFYV — lower, 0.5956 ± 0.003
- RALNRVWLSRRV — lower, 0.607 ± 0.02
- RALSLLSLLLNR — within error, 0.696 ± 0.022
- RAMLWGPCYRGI — within error, 0.656 ± 0.021
- RAPFLSRACCSR — lower, 0.648 ± 0.013
- RAPPPPARPALP — within error, 0.687 ± 0.028
- RARAIGVGAGRG — within error, 0.691 ± 0.019
- RARPGRACPGAP — higher, 0.755 ± 0.0097
- RARVGGRQLRRV — within error, 0.753 ± 0.15
- RARVVRRWDTCG — within error, 0.697 ± 0.086
- RASTRGIMISKS — within error, 0.706 ± 0.034
- RATLGVSGRCWV — higher, 0.6802 ± 0.001
- RAVHSSPHVSLS — within error, 0.681 ± 0.013
- RAVKLHIIIFDG — lower, 0.551 ± 0.025
- RAVSGSLSFLLR — higher, 0.721 ± 0.014
- RAWELPRLRGRD — within error, 0.743 ± 0.076
- RAWHFWVCGWRV — lower, 0.607 ± 0.041
- RCAGCFDSAFSW — higher, 0.746 ± 0.012
- RCFSLFYIYCPA — lower, 0.525 ± 0.0065
- RCGVAGVVCGSG — lower, 0.615 ± 0.039
- RCKCGDALTVIH — within error, 0.691 ± 0.016
- RCLGDLLARQTP — lower, 0.635 ± 0.012
- RCLRALGLFARS — higher, 0.719 ± 0.008
- RCLSISTSLCKV — higher, 0.744 ± 0.052
- RCPQHCDLSVYV — within error, 0.681 ± 0.021
- RCSAPWFSPYPP — within error, 0.645 ± 0.073
- RCSLGWKRFDWR — within error, 0.706 ± 0.061
- RCTNSLPSYLSH — the same, 0.675 ± 0.039
- RDCPVTPGTLFS — within error, 0.744 ± 0.084
- RDGGSTDGGKRR — within error, 0.697 ± 0.024
- RDNKIKEGKKKK — within error, 0.682 ± 0.1
- RDSERTSGAMLS — within error, 0.689 ± 0.031
- REGRRSVWGVSW — within error, 0.685 ± 0.023
- REHLSERVPSRA — higher, 0.749 ± 0.057
- REKLINEKRIRR — higher, 0.704 ± 0.012
- RELGAWSFITSV — higher, 0.705 ± 0.014
- RESIEGGGAPRD — within error, 0.747 ± 0.11
- REVRRNINKRRE — within error, 0.67 ± 0.11
- REVYLFSSSCRG — lower, 0.623 ± 0.027
- REWDRRGRSHHF — higher, 0.769 ± 0.069
- REWVAGGGVVGV — within error, 0.679 ± 0.031
- RFFSGPCCGRSP — higher, 0.6995 ± 0.002
- RFGDWALGARVG — higher, 0.72 ± 0.032
- RFGGGPCRSVGC — higher, 0.7331 ± 0.0059
- RFGRGAGWGLGG — lower, 0.66 ± 0.0092
- RFLLNPPLRCPP — higher, 0.747 ± 0.041
- RFPLTPSPLRAT — higher, 0.6948 ± 0.0039
- RFPRFVVPTRTR — higher, 0.852 ± 0.058
- RFRVKSYLYFCP — lower, 0.614 ± 0.03
- RFSDGSHLFGDR — lower, 0.524 ± 0.14
- RFSTRAVRLGPC — within error, 0.705 ± 0.19
- RFTNHPTRQTTG — within error, 0.676 ± 0.088
- RFVCVSVCPVRV — lower, 0.487 ± 0.065
- RFWFWWVVRDGS — within error, 0.617 ± 0.08
- RGCAPDRIPAPV — lower, 0.645 ± 0.023
- RGEERGGTRPAG — within error, 0.6788 ± 0.0037
- RGEPPSAKEIAR — higher, 0.727 ± 0.045
- RGEVSGRVGRVG — within error, 0.684 ± 0.058
- RGFRPLGSGILI — within error, 0.689 ± 0.051
- RGGDGGGLRTRD — within error, 0.688 ± 0.037
- RGGEGTQRRKLR — within error, 0.717 ± 0.077
- RGGGAARGGGVG — lower, 0.658 ± 0.009
- RGGGGGGQVAVG — within error, 0.711 ± 0.049
- RGGGGGRKVSVG — within error, 0.658 ± 0.062
- RGGGRGGSRTGA — higher, 0.712 ± 0.033
- RGGNVDSRKMNR — higher, 0.722 ± 0.018
- RGGPQARRLRPY — within error, 0.706 ± 0.063
- RGGVGRLEGCRG — within error, 0.684 ± 0.066
- RGGWRGVWGHVV — lower, 0.599 ± 0.033
- RGKTIQGNADPK — within error, 0.672 ± 0.032
- RGLYQCFLLDIV — lower, 0.472 ± 0.047
- RGMVPREKHQNS — within error, 0.683 ± 0.013
- RGPARFYVRVSV — lower, 0.498 ± 0.0077
- RGPFSGKCEPSM — within error, 0.663 ± 0.049
- RGPGAWFVSWWA — higher, 0.7886 ± 0.0029
- RGPGMVRAFAEA — within error, 0.679 ± 0.011
- RGQTSLTGERNK — within error, 0.701 ± 0.055
- RGRCGRLSRAGA — higher, 0.727 ± 0.041
- RGRGKRNDPEKR — within error, 0.681 ± 0.036
- RGRGSLPGFKSL — within error, 0.654 ± 0.058
- RGRTLVVPAPDT — within error, 0.673 ± 0.017
- RGSFGAWTVGGQ — lower, 0.59 ± 0.026
- RGSIKSYNTRKT — higher, 0.728 ± 0.009
- RGTYRYNFSQKK — within error, 0.652 ± 0.12
- RGVDVWQGRTVP — higher, 0.6879 ± 0.0031
- RGVGGRALGVGR — within error, 0.678 ± 0.038
- RGVGGRGIGFPR — within error, 0.6826 ± 0.0058
- RGVPWVVFSVGA — lower, 0.542 ± 0.015
- RGWGVLCGGGWG — lower, 0.556 ± 0.053
- RHDSYKSLHSNL — higher, 0.743 ± 0.05
- RHFFRYYLDHPS — lower, 0.617 ± 0.035
- RHGDGGRGRVDG — within error, 0.736 ± 0.1
- RHIKIADYKTLT — within error, 0.686 ± 0.04
- RHILPNKCRLHH — within error, 0.714 ± 0.2
- RHKVVLQPRPQV — within error, 0.649 ± 0.039
- RHPPVPCIAQIR — within error, 0.658 ± 0.024
- RHPTITAPTPTP — higher, 0.748 ± 0.063
- RHRLTPLTQYPS — within error, 0.677 ± 0.062
- RIGDVIRIAEIK — within error, 0.729 ± 0.069
- RIIRPRSTKDHP — within error, 0.745 ± 0.14
- RIKKKKKIKRNN — higher, 0.7 ± 0.02
- RILLSPLSQSQP — within error, 0.695 ± 0.025
- RIPLYAFLPPID — higher, 0.745 ± 0.066
- RIPTALLAPYAQ — within error, 0.649 ± 0.03
- RKAPLPDRGIPW — higher, 0.708 ± 0.017
- RKCDKVGCDEKA — within error, 0.66 ± 0.02
- RKEEKKEGKGTR — within error, 0.663 ± 0.062
- RKEESKKEKNKI — within error, 0.65 ± 0.11
- RKEKRKRRGEAN — within error, 0.662 ± 0.061
- RKGDRAQRWRDL — within error, 0.655 ± 0.12
- RKIRKKRERKGE — within error, 0.714 ± 0.2
- RKKGKLESKKQK — within error, 0.742 ± 0.12
- RKKINKRLCLGN — within error, 0.692 ± 0.033
- RKKQYEKKSEKP — within error, 0.689 ± 0.11
- RKLYMCMRTKGD — within error, 0.673 ± 0.046
- RKNDSKKNCVKE — within error, 0.705 ± 0.089
- RKPTSFFSRIVN — lower, 0.611 ± 0.026
- RKRPTQAMIFNI — lower, 0.5568 ± 0.0013
- RKSERIKNKNGR — higher, 0.715 ± 0.037
- RKSKRLDQSCTR — within error, 0.703 ± 0.035
- RKTGTGETRTRR — within error, 0.691 ± 0.015
- RKVKGKKRYTEG — within error, 0.662 ± 0.058
- RKYKNKRSKKEK — within error, 0.755 ± 0.1
- RLCLFPVAPLLS — lower, 0.599 ± 0.03
- RLCLLVVPLLPP — within error, 0.665 ± 0.055
- RLCPWNLSDADL — higher, 0.71 ± 0.0091
- RLDRGLHIKAIT — higher, 0.704 ± 0.014
- RLDVGAGGCLGG — higher, 0.716 ± 0.021
- RLFIALFPPFYL — within error, 0.64 ± 0.05
- RLGAEYNWVNLS — lower, 0.6362 ± 0.0026
- RLGALNHPLAAP — higher, 0.7183 ± 0.0057
- RLGARGGSRGRP — higher, 0.736 ± 0.012
- RLGFCGLGHRCE — within error, 0.677 ± 0.033
- RLGLRWSPHSSP — higher, 0.707 ± 0.01
- RLGLSIASAPCL — within error, 0.693 ± 0.062
- RLIEDREWLGSR — higher, 0.721 ± 0.014
- RLIIRYESYTSD — higher, 0.709 ± 0.013
- RLLFLPPPPPPP — within error, 0.654 ± 0.082
- RLLLPSTLLPPR — within error, 0.761 ± 0.13
- RLLLSRCSFLPT — within error, 0.663 ± 0.03
- RLLPLPRRTPPL — higher, 0.852 ± 0.11
- RLLPPSLAQRNN — lower, 0.5909 ± 0.0011
- RLLRDFQSVGGD — lower, 0.6498 ± 0.0014
- RLPAPPPHPPPP — higher, 0.7037 ± 0.0013
- RLPPGATPYPPR — higher, 0.711 ± 0.013
- RLPPRPPPRPPT — lower, 0.6514 ± 0.006
- RLPRSPPLPSCR — higher, 0.726 ± 0.016
- RLPSAPPRQPTH — within error, 0.667 ± 0.061
- RLRPPPRTLPTP — higher, 0.722 ± 0.011
- RLRQTLPTWVTT — within error, 0.665 ± 0.015
- RLRSSTAAAAIV — within error, 0.713 ± 0.082
- RLRSWLGIALFL — lower, 0.642 ± 0.0067
- RLSSLRAFSLRS — higher, 0.721 ± 0.026
- RLSSLSPFLVLS — lower, 0.589 ± 0.0084
- RLTALVYFISPL — lower, 0.597 ± 0.017
- RLVFDTGPPFIN — within error, 0.657 ± 0.042
- RLWFPSARLRFT — within error, 0.678 ± 0.06
- RMGAEDTGCRRP — within error, 0.657 ± 0.062
- RMINHGNKAKFS — within error, 0.662 ± 0.016
- RMIQKFGLGVVV — lower, 0.5613 ± 0.0047
- RMNSCVLLDGFA — within error, 0.687 ± 0.03
- RNFAPPFLPSPH — within error, 0.711 ± 0.066
- RNIKIGKYMKRI — higher, 0.729 ± 0.034
- RNIQKLNKIKKK — within error, 0.753 ± 0.15
- RNNRQAREKKKQ — within error, 0.701 ± 0.15
- RNPLDGDSGSRG — higher, 0.699 ± 0.0076
- RNRDKKGDMILK — higher, 0.691 ± 0.0086
- RNRRKTLMETRS — within error, 0.695 ± 0.082
- RNSDPRLGGNTF — within error, 0.687 ± 0.052
- RNTRAPTRNVPE — within error, 0.674 ± 0.028
- RNTYKKREKNKK — higher, 0.7363 ± 0.0025
- RNWCHGTVLNRL — within error, 0.736 ± 0.13
- RPASPASSPFFP — higher, 0.70509 ± 0.00065
- RPCSVPFSNTSP — within error, 0.666 ± 0.0067
- RPEKGLESGQRV — within error, 0.69 ± 0.064
- RPLALHSYPCSP — within error, 0.6771 ± 0.00072
- RPLPASTTLCVL — within error, 0.689 ± 0.11
- RPLSSPPTRSRA — higher, 0.751 ± 0.038
- RPLVSRLPIFIR — lower, 0.506 ± 0.014
- RPPCLRPPPPPL — higher, 0.727 ± 0.012
- RPPIGTLCSINF — within error, 0.614 ± 0.13
- RPPNPPPALPPL — within error, 0.701 ± 0.056
- RPPPLPPRPSPP — within error, 0.752 ± 0.12
